# In publication PMC6719446 (The Journal of Cell Biology, 2019):
# T1: Purified ASB11 bound on anti-Myc beads (human (ASB11 cDNA amplified from 293T …, UniProt Q8WXH4 1-323))
# T1 sequence (looked up): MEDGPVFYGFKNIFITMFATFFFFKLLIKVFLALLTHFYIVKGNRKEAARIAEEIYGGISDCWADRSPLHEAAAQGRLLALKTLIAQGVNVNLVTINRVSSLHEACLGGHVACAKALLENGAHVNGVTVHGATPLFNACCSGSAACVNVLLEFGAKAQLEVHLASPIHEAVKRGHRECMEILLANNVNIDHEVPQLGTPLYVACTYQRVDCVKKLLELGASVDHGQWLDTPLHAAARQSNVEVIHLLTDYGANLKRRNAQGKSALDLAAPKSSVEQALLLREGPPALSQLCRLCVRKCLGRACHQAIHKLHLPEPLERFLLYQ
# Target: T1, Purified ASB11 bound on anti-Myc beads
# Assay: pull-down
binder,measurement,value
"3xFlag-BIK (natural protein, UniProt Q13323 1-160, looked up) MSEVRPLSRDILMETLLYEQLLEPPTMEVLGMTDSEEDLDPMEDFDSLECMEGSDALALRLACIGDEMDVSLRAPRLAQLSEVAMHSLGLAFIYDQTEDIRDVLRSFMDGFTTLKENIMRFWRSPNPGSWVSCEQVLLALLLLLALLLPLLSGGLHLLLK",binding result,binds
